± gives the standard deviation of the averaged measurements.
B1: library; a variant is named by its letters at N, in order (parent)
chain: GCUGUCACCGGUGCUUGGUACGUUAUAUUCAGCCGGUCUGAUGAGUCUNNNNNNAGACGAAACAGC

Key:
[1] = variants of: B1; assay: normalized RNA/DNA level without ligand (relative to sTRSVctl = 100) (log10 (% of sTRSVctl)); HEK293T overexpressing SLC46A1; higher = less ribozyme self-cleavage, higher mRNA level; details: without (6R,S)-folinic acid; ligand present: no
Outline: (§1)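 For each 6-well well, 4 µg of library plasmid encoding mCherry-linked ribozyme switches, or eGFP-linked ones in some ligand experiments, was transfected into HEK293T. Any ligand was added 1 h before transfection, and RNA was extracted with EDTA 72 h after it, then reverse-transcribed, amplified, barcoded and sequenced. RNA level was obtained by dividing RNA reads by DNA reads, normalizing to a spiked-in non-cleaving sequence or to the top sequences, then scaling and log-transforming. The top set was 25 sequences, scaling was ×100 with log10, and ≥100 DNA reads were required.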

[2] = variants of: B1; assay: normalized RNA/DNA level with ligand (relative to sTRSVctl = 100) (log10 (% of sTRSVctl)); HEK293T overexpressing SLC46A1; ligand concentration (+) RNA-Seq: 6 mM; higher = less ribozyme self-cleavage, higher mRNA level; details: with (6R,S)-folinic acid; ligand present: yes
Outline: as §1

| Variant | normalized RNA/DNA level without ligand (log10) [1] | normalized RNA/DNA level with ligand (log10) [2] |
| --- | --- | --- |
| GAGCUC | 2.07 ± 0.011 | 2.05 ± 0.041 |
| GAGCUG | 2.087 ± 0.0096 | 2.07 ± 0.051 |
| CAGUAU | 1.951 ± 0.0075 | 2.016 ± 0.013 |
| CAGUAC | 1.96 ± 0.036 | 1.97 ± 0.04 |
| CAGUAG | 1.93 ± 0.023 | 1.99 ± 0.052 |
| CACUUA | 1.952 ± 0.0058 | 1.97 ± 0.058 |
| CACUUU | 1.985 ± 0.013 | 1.98 ± 0.036 |
| CACUUG | 2.032 ± 0.0036 | 2.03 ± 0.0041 |
| CACUUC | 2.04 ± 0.03 | 2.026 ± 0.012 |
| UACGCU | 2.0313 ± 0.00036 | 2.043 ± 0.0085 |
| AACUAG | 1.94 ± 0.022 | 2.02 ± 0.039 |
| AACUAA | 1.97 ± 0.023 | 1.96 ± 0.026 |
| AACUAU | 1.975 ± 0.0066 | 2 ± 0.037 |
| AAGCAC | 2.022 ± 0.0075 | 1.98 ± 0.045 |
| AAGCAG | 1.925 ± 0.0059 | 2 ± 0.045 |
| AAUAGC | 1.985 ± 0.013 | 2 ± 0.058 |
| UAGCCA | 2.034 ± 0.011 | 2.046 ± 0.019 |
| UAGCCC | 2.0516 ± 0.00055 | 2.03 ± 0.006 |
| CAGCGG | 1.984 ± 0.0099 | 2.06 ± 0.029 |
| CAGCGC | 2.046 ± 0.016 | 2.01 ± 0.039 |
| CAGCGA | 2.03 ± 0.0044 | 2.002 ± 0.0065 |
| CAGCGU | 1.999 ± 0.0031 | 1.99 ± 0.053 |
| UAGCUU | 2.001 ± 0.012 | 2.02 ± 0.029 |
| UAGCUG | 1.9 ± 0.021 | 2.026 ± 0.016 |

| Variant | normalized RNA/DNA level without ligand (log10) [1] | normalized RNA/DNA level with ligand (log10) [2] |
| --- | --- | --- |
| UAGCUA | 1.9994 ± 0.0013 | 2.03 ± 0.048 |
| UAGCUC | 2.08 ± 0.017 | 2.0396 ± 0.002 |
| AACGUC | 2.066 ± 0.014 | 2.04 ± 0.021 |
| UACUCA | 1.9962 ± 0.00016 | 1.98 ± 0.038 |
| UACUCC | 2.051 ± 0.012 | 2.034 ± 0.0051 |
| UACUCG | 1.8448 ± 0.00067 | 1.99 ± 0.031 |
| UACUCU | 2.027 ± 0.0077 | 2.05 ± 0.028 |
| CACGCU | 2.042 ± 0.0097 | 2.034 ± 0.011 |
| CACUAG | 1.949 ± 0.01 | 2.02 ± 0.034 |
| CACUAU | 1.962 ± 0.0042 | 2.01 ± 0.03 |
| CACUAA | 1.961 ± 0.01 | 2.0172 ± 0.0006 |
| CACUAC | 2.0166 ± 0.00023 | 2.01 ± 0.074 |
| GACUCU | 2.033 ± 0.0069 | 2 ± 0.066 |
| GACUCA | 2.004 ± 0.0082 | 1.98 ± 0.028 |
| GACUCG | 2.0319 ± 0.0013 | 2.05 ± 0.032 |
| GAGCCC | 2.023 ± 0.013 | 2.02 ± 0.053 |
| AAGUCC | 2 ± 0.023 | 2.01 ± 0.024 |
| AAGUCU | 2.066 ± 0.015 | 2.0681 ± 0.0013 |
| AAGUCA | 1.969 ± 0.0021 | 1.98 ± 0.029 |
| GACUUU | 1.9897 ± 4.9e-05 | 1.97 ± 0.037 |
| GACUUA | 1.982 ± 0.0071 | 1.99 ± 0.022 |
| GACUUC | 2.08 ± 0.029 | 2.064 ± 0.014 |
| GACGGC | 2.03 ± 0.016 | 2.04 ± 0.072 |
| UAGCGA | 1.921 ± 0.018 | 2.035 ± 0.019 |

| Variant | normalized RNA/DNA level without ligand (log10) [1] | normalized RNA/DNA level with ligand (log10) [2] |
| --- | --- | --- |
| UAGCGU | 1.921 ± 0.0035 | 1.99 ± 0.048 |
| UAGCGC | 1.998 ± 0.018 | 2.005 ± 0.013 |
| GAGAGC | 1.945 ± 0.01 | 2.03 ± 0.042 |
| GAGGGC | 1.956 ± 0.011 | 2.04 ± 0.042 |
| GAGGGG | 2.007 ± 0.018 | 2.04 ± 0.051 |
| GAGACC | 2.021 ± 0.0065 | 2.04 ± 0.057 |
| GAGACG | 1.978 ± 0.014 | 2.031 ± 0.014 |
| GAGACA | 1.976 ± 0.0079 | 2.01 ± 0.031 |
| AAGCCC | 2.0608 ± 0.0014 | 2.04 ± 0.039 |
| AAGCCA | 2.009 ± 0.0029 | 2.03 ± 0.022 |
| AAGCCG | 1.988 ± 0.0067 | 2.01 ± 0.041 |
| UAUAAC | 1.98 ± 0.0056 | 2 ± 0.029 |
| UAGAGU | 1.855 ± 0.011 | 1.992 ± 0.016 |
| CAGGUU | 2 ± 0.032 | 2 ± 0.022 |
| CAGGUC | 2.08 ± 0.0023 | 2.04 ± 0.045 |
| AAGUGC | 1.984 ± 0.0023 | 2.01 ± 0.052 |
| AAGUGG | 1.87 ± 0.01 | 2.02 ± 0.041 |
| GAGGCG | 2.003 ± 0.014 | 2.05 ± 0.055 |
| GAGGCC | 2.041 ± 0.0098 | 2.044 ± 0.012 |
| GAGGCU | 2.073 ± 0.0028 | 2.04 ± 0.022 |
| CAGUGU | 2.015 ± 0.02 | 2.03 ± 0.025 |
| CAGUGC | 2.011 ± 0.014 | 2 ± 0.026 |
| CAGUGG | 1.91 ± 0.023 | 2.005 ± 0.0026 |
| CAGUGA | 1.979 ± 0.011 | 2.007 ± 0.02 |

| Variant | normalized RNA/DNA level without ligand (log10) [1] | normalized RNA/DNA level with ligand (log10) [2] |
| --- | --- | --- |
| GACUAA | 1.977 ± 0.008 | 1.98 ± 0.043 |
| GACUGG | 2.023 ± 0.018 | 2.018 ± 0.018 |
| GACUGU | 1.98 ± 0.011 | 1.98 ± 0.068 |
| GACUGC | 1.998 ± 0.0095 | 2.02 ± 0.037 |
| GACUGA | 2.03 ± 0.02 | 2 ± 0.025 |
| CAGCCC | 2.077 ± 0.02 | 2.027 ± 0.013 |
| CAGCCG | 2.044 ± 0.0032 | 2.053 ± 0.019 |
| CAGCCA | 1.9832 ± 0.0011 | 2.01 ± 0.063 |
| GAGUAU | 1.982 ± 0.0044 | 2.014 ± 0.02 |
| AAGGCA | 2.007 ± 0.0039 | 2.04 ± 0.022 |
| AAGGCU | 1.995 ± 0.011 | 2.019 ± 0.0048 |
| AAGGCG | 1.9326 ± 0.0006 | 2.03 ± 0.036 |
| AAGGAC | 1.966 ± 0.0074 | 1.99 ± 0.037 |
| UACUGA | 1.9244 ± 0.0015 | 2.03 ± 0.034 |
| UACUGU | 1.936 ± 0.0083 | 1.98 ± 0.02 |
| CAUACC | 2.027 ± 0.004 | 2.03 ± 0.029 |
| CAUACA | 2.001 ± 0.0091 | 1.98 ± 0.048 |
| CAUACU | 2.01 ± 0.018 | 2.03 ± 0.051 |
| CAUACG | 1.987 ± 0.0082 | 2 ± 0.023 |
| AACUCA | 2.03 ± 0.0039 | 2.003 ± 0.016 |
| AACUCC | 2.06 ± 0.031 | 2.01 ± 0.032 |
| AACUCU | 2.0187 ± 0.0003 | 2.02 ± 0.031 |
| GAGAUU | 2.017 ± 0.0046 | 2.01 ± 0.022 |
| GAGAUA | 1.993 ± 0.011 | 2.03 ± 0.026 |

| Variant | normalized RNA/DNA level without ligand (log10) [1] | normalized RNA/DNA level with ligand (log10) [2] |
| --- | --- | --- |
| GAGAUC | 2.038 ± 0.0061 | 2.001 ± 0.014 |
| GAGAUG | 1.926 ± 0.0081 | 2.02 ± 0.035 |
| UACUAG | 1.828 ± 0.016 | 1.99 ± 0.031 |
| UACUAA | 1.973 ± 0.0021 | 2.02 ± 0.0061 |
| UACUAC | 2.022 ± 0.0093 | 2.011 ± 0.0087 |
| GAGCAA | 1.96 ± 0.025 | 2 ± 0.049 |
| AAGUUC | 2.031 ± 0.017 | 2.02 ± 0.054 |
| AAGUUU | 2.009 ± 0.017 | 2.01 ± 0.033 |
| AAGAAU | 1.95 ± 0.0044 | 2.011 ± 0.014 |
| CAGAAC | 2.003 ± 0.0049 | 2.02 ± 0.056 |
| CAGAAG | 1.925 ± 0.006 | 2.02 ± 0.03 |
| UAGAAC | 1.979 ± 0.012 | 2 ± 0.033 |
| UAUACA | 1.965 ± 0.003 | 2.01 ± 0.05 |
| AAGGGG | 1.902 ± 0.011 | 2.038 ± 0.011 |
| AAGGGC | 2.0351 ± 4.5e-05 | 2.05 ± 0.045 |
| UAGUAC | 1.972 ± 0.002 | 2.01 ± 0.048 |
| UACGGC | 2.05 ± 0.0049 | 2.05 ± 0.063 |
| CAGAGA | 1.999 ± 0.019 | 2.01 ± 0.045 |
| CAGAGC | 2.013 ± 0.01 | 2.01 ± 0.028 |
| CAGAGU | 1.996 ± 0.0082 | 2.02 ± 0.035 |

From the supplement of paper PMC6757056
